Usually Kd stands for the equilibrium constant for the complex coming apart.

The text below walks through data of publication PMC10042821 (2023).

B1: deoxyhypusine synthase, wild type, His-tagged (enzyme)
chain: MEGSLEREAPAGALAAVLKHSSTLPPESTQVRGYDFNRGVNYRALLEAFGTTGFQATNFGRAVQQVNAMIEKKLEPLSQDEDQHADLTQSRRPLTSCTIFLGYTSNLISSGIRETIRYLVQHNMVDVLVTTAGGVEEDLIKCLAPTYLGEFSLRGKELRENGINRIGNLLVPNENYCKFEDWLMPILDQMVMEQNTEGVKWTPSKMIARLGKEINNPESVYYWAQKNHIPVFSPALTDGSLGDMIFFHSYKNPGLVLDIVEDLRLINTQAIFAKCTGMIILGGGVVKHHIANANLMRNGADYAVYINTAQEFDGSDSGARPDEAVSWGKIRVDAQPVKVYADASLVFPLLVAETFAQKMDAFMHEKNED
B2: eukaryotic translation factor 5A-1 (eIF5A-1), residues 15-151 (domain or fragment)
chain: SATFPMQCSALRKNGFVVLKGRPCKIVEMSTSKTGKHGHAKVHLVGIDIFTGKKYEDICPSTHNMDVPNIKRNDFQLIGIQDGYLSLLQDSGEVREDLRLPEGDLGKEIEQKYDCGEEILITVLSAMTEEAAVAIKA

The target of experiment [1] is B2. The experiment can be described thus: MST; + NAD.
For experiment [2], the target named is B2. The experiment can be described thus: MST; + NAD + SPD.
In experiment [3] the target is T1, deoxyhypusine synthase delY305_I306, patient-derived variant, His-tagged (human, UniProt P49366 1-369, delY305_I306). Kind of experiment: MST; + NAD.
Experiment [4] has as its target deoxyhypusine synthase N173S, patient-derived variant, His-tagged (human, UniProt P49366 1-369, N173S). The experiment can be described thus: MST; + NAD + SPD.
For experiment [5], the target named is T1, deoxyhypusine synthase delY305_I306, …. The experiment can be described thus: MST; + NAD + SPD.

In the case of B1, the Kd in experiment [1] was 27 nM; in experiment [2], 81.7 nM.
With B2, the figures for the dissociation constant (Kd) in experiment [3], in experiment [4] and in experiment [5] were 368 nM, 426 nM and 1580 nM, respectively.
